Test results published in IntAct's records for PubMed 16374512.

B1: Retinoblastoma-associated protein (Homo sapiens), P06400 (parent)
chain: MPPKTPRKTAATAAAAAAEPPAPPPPPPPEEDPEQDSGPEDLPLVRLEFEETEEPDFTALCQKLKIPDHVRERAWLTWEKVSSVDGVLGGYIQKKKELWGICIFIAAVDLDEMSFTFTELQKNIEISVHKFFNLLKEIDTSTKVDNAMSRLLKKYDVLFALFSKLERTCELIYLTQPSSSISTEINSALVLKVSWITFLLAKGEVLQMEDDLVISFQLMLCVLDYFIKLSPPMLLKEPYKTAVIPINGSPRTPRRGQNRSARIAKQLENDTRIIEVLCKEHECNIDEVKNVYFKNFIPFMNSLGLVTSNGLPEVENLSKRYEEIYLKNKDLDARLFLDHDKTLQTDSIDSFETQRTPRKSNLDEEVNVIPPHTPVRTVMNTIQQLMMILNSASDQPSENLISYFNNCTVNPKESILKRVKDIGYIFKEKFAKAVGQGCVEIGSQRYKLGVRLYYRVMESMLKSEEERLSIQNFSKLLNDNIFHMSLLACALEVVMATYSRSTSQNLDSGTDLSFPWILNVLNLKAFDFYKVIESFIKAEGNLTREMIKHLERCEHRIMESLAWLSDSPLFDLIKQSKDREGPTDHLESACPLNLPLQNNHTAADMYLSPVRSPKKKGSTTRVNSTANAETQATSAFQTQKPLKSTSLSLFYKKVYRLAYLRLNTLCERLLSEHPELEHIIWTLFQHTLQNEYELMRDRHLDQIMMCSMYGICKVKNIDLKFKIIVTAYKDLPHAVQETFKRVLIKEEEYDSIIVFYNSVFMQRLKTNILQYASTRPPTLSPIPHIPRSPYKFPSSPLRIPGGNIYISPLKSPYKISEGLPTPTKMTPRSRILVSIGESFGTSEKFQKINQMVCNSDRVLKRSAEGSNPPKPLKKLRFDIEGSDEADGSKHLPGESKFQQKLAEMTSTRTRMQKQKMNDSMDTSNKEEK

Columns and labels:
e2f1_human E2F1, Q01094 [1] = variants of: B1; settings: with e2f1_human E2F1, Q01094
e2f1_human E2F1, Q01094, sequence (Q01094 whole entry): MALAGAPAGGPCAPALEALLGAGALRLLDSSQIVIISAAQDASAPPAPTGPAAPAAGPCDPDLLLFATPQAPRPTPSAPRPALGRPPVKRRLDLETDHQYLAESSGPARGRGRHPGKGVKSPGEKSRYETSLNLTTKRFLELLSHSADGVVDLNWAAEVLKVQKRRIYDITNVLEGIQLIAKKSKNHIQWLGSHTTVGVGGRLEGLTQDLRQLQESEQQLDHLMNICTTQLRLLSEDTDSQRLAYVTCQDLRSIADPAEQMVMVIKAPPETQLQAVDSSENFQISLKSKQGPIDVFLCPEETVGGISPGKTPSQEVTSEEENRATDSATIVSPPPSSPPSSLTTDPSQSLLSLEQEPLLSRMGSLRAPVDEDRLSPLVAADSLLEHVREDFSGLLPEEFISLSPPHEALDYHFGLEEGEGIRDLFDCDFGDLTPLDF

e2f1_human E2F1, Q01094 [2] = variants of: B1; settings: with e2f1_human E2F1, Q01094; remark: listed apart in the source

effect of a mutation on the interaction (e2f1_human E2F1, Q01094 [1])	effect of a mutation on the interaction (e2f1_human E2F1, Q01094 [2])	Variant
disrupting interaction	decreasing interaction	K874Q
disrupting interaction	decreasing interaction	K873Q
